Experimental data reported in patent publication US20120076728A1 (University of California, published 2012).
No end group written: not given here.

T1: carcinoembryonic antigen (CEA), form not stated (UniProt P06731 35-685, limits assumed)
T1 sequence (looked up): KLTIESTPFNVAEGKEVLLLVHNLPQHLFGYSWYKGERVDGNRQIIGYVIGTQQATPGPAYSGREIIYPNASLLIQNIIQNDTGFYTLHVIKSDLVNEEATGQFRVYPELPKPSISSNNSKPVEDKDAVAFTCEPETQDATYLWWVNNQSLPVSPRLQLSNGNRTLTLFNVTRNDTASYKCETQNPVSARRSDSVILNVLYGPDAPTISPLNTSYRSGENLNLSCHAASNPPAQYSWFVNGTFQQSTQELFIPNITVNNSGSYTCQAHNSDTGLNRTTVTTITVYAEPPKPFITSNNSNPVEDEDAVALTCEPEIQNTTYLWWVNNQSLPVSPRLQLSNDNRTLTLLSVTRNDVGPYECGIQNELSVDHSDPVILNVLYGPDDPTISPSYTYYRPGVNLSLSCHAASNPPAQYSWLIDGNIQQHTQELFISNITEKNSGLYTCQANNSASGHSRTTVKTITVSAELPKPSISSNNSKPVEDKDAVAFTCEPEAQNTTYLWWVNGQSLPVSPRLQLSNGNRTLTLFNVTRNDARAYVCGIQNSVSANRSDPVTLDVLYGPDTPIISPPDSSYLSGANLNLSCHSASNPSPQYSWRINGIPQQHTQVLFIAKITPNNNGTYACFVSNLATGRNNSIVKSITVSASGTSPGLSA


Assays:
[1] = molecular target: carcinoembryonic antigen (CEA) expressed by LS174T human colon carcinoma tumors (human (LS174T human colon carcinoma cells)) (UniProt P06731); experiment: cell-based or functional assay
[2] = molecular target: T1, carcinoembryonic antigen (CEA), form …; experiment: not stated; given as a property of the peptide

CEA positive-to-negative tumor uptake ratio at 51 h [1]	Kd [2]	Molecule
13		anti-CEA T84.66 diabody (Db)
	160 nM	SDWVCEFIKSQWFCNVLASG-HyNic (also: cyclic, bond type and places not given here, also called anti-CEA peptide; CEA specific peptide) [CEA specific, cyclic peptide SDWVCEFIKSQWFCNVLASG]
